Results taken from patent publication US20190315859A1 (EUREKA THERAPEUTICS, published 2019).

T1: human CD19 expressed on the cell surface (native format) (human, UniProt P15391 20-488)
T1 construct: Endogenous on Raji, Jeko-1 and primary human B cells (CD20+CD3- gate); transduced into NIH/3T3 (3T3-CD19); also called hCD19; cell-surface human CD19
T1 sequence: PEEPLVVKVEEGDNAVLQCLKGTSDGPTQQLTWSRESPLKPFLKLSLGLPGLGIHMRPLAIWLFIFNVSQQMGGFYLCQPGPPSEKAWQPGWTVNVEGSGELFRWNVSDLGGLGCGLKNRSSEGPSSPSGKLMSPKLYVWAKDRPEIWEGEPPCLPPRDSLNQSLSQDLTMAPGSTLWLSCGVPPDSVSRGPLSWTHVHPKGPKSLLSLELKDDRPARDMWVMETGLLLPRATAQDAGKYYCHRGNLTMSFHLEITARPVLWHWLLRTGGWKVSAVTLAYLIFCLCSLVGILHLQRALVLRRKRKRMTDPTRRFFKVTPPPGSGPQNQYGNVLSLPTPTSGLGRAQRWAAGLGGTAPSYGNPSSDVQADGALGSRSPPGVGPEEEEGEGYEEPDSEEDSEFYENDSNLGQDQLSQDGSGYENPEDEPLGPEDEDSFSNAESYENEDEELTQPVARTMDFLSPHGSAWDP

T2: Recombinant human CD19 ECD-Fc fusion protein (human, UniProt P15391 20-291, biotinylated for the Octet assay (sites not given); not biotinylated when coated for ELISA)
T2 construct: domain: Fc of human IgG1 lacking the CH1 domain and including the hinge region; also called human CD19-Fc; hCD19 ECD-Fc; not shown: Fc of human IgG1 lacking the CH1 domain and including the hinge region
T2 sequence: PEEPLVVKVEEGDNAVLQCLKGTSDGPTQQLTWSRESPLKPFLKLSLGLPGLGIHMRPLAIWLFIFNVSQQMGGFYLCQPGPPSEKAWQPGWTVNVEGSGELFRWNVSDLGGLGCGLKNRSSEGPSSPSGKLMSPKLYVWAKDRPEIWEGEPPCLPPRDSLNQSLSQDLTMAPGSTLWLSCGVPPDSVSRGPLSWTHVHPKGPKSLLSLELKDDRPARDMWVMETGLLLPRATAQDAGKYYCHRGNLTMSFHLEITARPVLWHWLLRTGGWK

B1: 40 (scFv)
scFv (VL-linker-VH), shown on M13 phage: EIVMTQSPLSLSVTPGEPASISCRSSQSLLDSNGFNSLDWYLQKPGQSPQLLIHLGSDRASGVPDRFSGSGSGTDFTLKISRVEAEDVGIYYCMQSLQIPTFGQGTKVEIKRSRGGGGSGGGGSGGGGSLEMAQMQLVQSGAEVKKAGSSVKVSCETSGGTFSSSSVNWVRQAPGQGLEWMGGIIPIVGTPNYAQKFQDRVTITAVESTFTAYMELSGLRSEDTAVYYCARGGYRDYMDVWGRGTTVTVSS
notes: hit from protein screening (ELISA); also called clone 40; anti-human CD19 scFv phage clone 40
B2: 54 (scFv)
scFv (VL-linker-VH), shown on M13 phage: SYVLTQPPSVSVSPGQTASITCSGDKLGDKYASWYQQKPGQSPVLVIYQDNKRPSGIPERFSGSNSGNTATLTISGTQAMDEADYYCQAWDSSTEDVFGPGTKVTVLGSRGGGGSGGGGSGGGGSLEMAEVQLVESGGGLIQPGGSLRLSCAASGFTVSSNYMSWVRQAPGKGLEWVSVIYSGGSTYYADSVKGRFTISRDNSKNTLYLQMNSLRAEDTAVYYCARGGISDDYYGSGSYDNWGQGTLVTVSS
notes: hit from protein screening (ELISA); also called clone 54; anti-human CD19 scFv phage clone 54
B3: 43 (scFv)
scFv (VL-linker-VH), shown on M13 phage: SYELTQPPSASGTPGQRVTISCSGSSSNIGSNYVYWYQQLPGTAPKLLIYRNNQRPSGVPDRFSGSKSGTSASLAISGLRSEDEADYYCAAWDDSLSGYVFGTGTKVTVLGSRGGGGSGGGGSGGGGSLEMAEVQLVESGGGLIQPGGSLRLSCAASGFTVSSNYMSWVRQAPGKGLEWVSVIYSGGSTYYADSVKGRFTISRDNSKNTLYLQMNSLRAEDTAVYYCARGGFGAEFDYWGQGTLVTVSS
notes: hit from protein screening (ELISA); also called clone 43; anti-human CD19 scFv phage clone 43
B4: 36 (scFv)
scFv (VL-linker-VH), shown on M13 phage: DIQLTQSPSSLSAYVGDRVTITCRASQGITNSLAWYQQKPGKAPKLLLHAASRLESGVPSRFSGSGFGTDFTLTISSLQPEDFAVYYCQHYLGTPYSFGQGTKVEIKRSRGGGGSGGGGSGGGGSLEMAEVQLVESGGGLVQPGGSLRLSCAASGFTVSSNYMSWVRQAPGKGLEWVSAISGSGGSTYYADSVKGRFTISRDNSKNTLYLQMNSLRAEDTAVYYCARMNIDYWGQGTLVTVSS
notes: hit from protein screening (ELISA); also called clone 36; anti-human CD19 scFv phage clone 36
B5: 9 (scFv)
scFv (VL-linker-VH), shown on M13 phage: QTVVTQEPSVSAAPGQKVTISCSGSSSNIGNNYVSWYQQLPGTAPKLLIYDNNKRPSGIPDRFSGSKSGTSATLGITGLQTGDEADYYCGTWDSSLSAGVFGTGTKLTVLGSRGGGGSGGGGSGGGGSLEMAQVQLVETGGGLVQPGGSLRLSCAASGFTFSSYAMSWVRQAPGKGLEWVSAISGSGGSTYYADSVKGRFTISRDNSKNTLYLQMNSLRAEDTAVYYCARYYYSRLDYWGQGTLVTVSS
notes: hit from protein screening (ELISA); also called clone 9; anti-human CD19 scFv phage clone 9
B6: 23 (scFv)
scFv (VL-linker-VH), shown on M13 phage: QSVLTQPPSVSAAPGQKVTISCSGSSSNIGNNYVSWYRQLPGTAPKLLIYENNKRPSGIPDRFSGSKSGTSATLGITGLQTGDEADYYCGTWDSSLRAGVFGTGTKVTVLGSRGGGGSGGGGSGGGGSLEMAQVQLVESGGGLVQPGGSLRLSCAASGFTFSSYAMSWVRQAPGKGLEWVSGISASGGSTYYADSVKGRFTISRDNSKNTLYLQMNSLRAEDTAVYYCARYYLSQIDSWGQGTLVTVSS
notes: hit from protein screening (ELISA); also called clone 23; anti-human CD19 scFv phage clone 23

Target: T1, human CD19 expressed on the cell …
Assay: flow cytometry, phage clone then mouse anti-M13 antibody then R-PE anti-mouse IgG; CD19+ Raji and 3T3-CD19, CD19- Jurkat and 3T3; MFI
Procedure: ELISA-positive phage clones were then tested for cell-surface human CD19 binding by flow cytometry using human CD19-positive Raji and 3T3-hCD19 cell lines, and human CD19 negative Jurkat and 3T3 cell lines (FIG. 1B). Cells were first stained with purified scFv phage clones, followed by mixing with a mouse anti-M13 monoclonal antibody, and finally a R-PE conjugated horse anti-mouse IgG (Vector Labs). Each step of staining was performed between 30-60 minutes on ice and cells were washed twice between stainings. One unique clone, 37, was identified to specifically bound human CD19⁺ Raji and 3T3-CD19 cells and not hCD19⁻ Jurkat and 3T3 (FIG. 1B).

Binder | binding result
B1 | no binding

Target: T2, Recombinant human CD19 ECD-Fc fusion …
Assay: ELISA, plate coated with human CD19 ECD-Fc, phage clone detected with HRP-conjugated anti-M13 antibody, OD450
Procedure: Individual phage clones from enriched phage display panning pools were incubated in the coated plates. Binding of the phage clones was detected by HRP-conjugated anti-M13 antibodies and developed using HRP substrate. The absorbance was read at 450 nm.

Binder | binding result
B2 | binds
B3 | binds
B4 | binds
B5 | binds
B6 | binds
